Reference: US20260266848A1, “COMPOSITIONS AND METHODS FOR DIAGNOSING AND TREATING DYSTONIA” (Duke University, priority 2023, published 2026)

Tested on: DYT1 patient plasma derived EVs
Assay: Plasma-derived EV proteomics (ExoQuick ULTRA, DIA LC/MS/MS), DYT1 vs Healthy Controls
Set-up: species or system human
Details: Hs. Plasma EVs (DYT1/WT); significance of genotype difference
Method: Data was obtained for extracellular vesicles using previously acquired samples. The ExoQuick® ULTRA EV Isolation System was used to fractionate and enrich EVs from plasma. Isolated plasma EV samples were then submitted to proteomic analysis by the Duke Proteomics and Metabolomics Core Facility (DPMCF). At the DPMCF, quantitative (LC/MS/MS) was performed on 500 ng of each sample, using an EvoSep One UPLC system coupled to a Thermo Orbitrap Astral high-resolution accurate mass tandem mass spectrometer (Thermo). Briefly, the sample was eluted directly from an Evotip which was subjected to a low organic wash and then subjected to an analytical separation using a 1.7 μm EvoSep 150 um ID×15 cm endurance (EveoSep) column running an SPD30 gradient from approximately 5 to 30% acetonitrile with 0.1% formic acid with a column temperature of 50 C. Data collection on the Orbitrap Astral mass spectrometer was performed in a data-independent acquisition (DIA) mode of acquisition with a r=240,000 (@m/z 200) full MS scan from m/z 380-980 with a target AGC value of 4e5 ions. Fixed DIA, windows of 4 m/z from m/z 380 to 980 DIA MS/MS scans were acquired in the Astral with a target AGC value of 5e4 and a max fill time of 6 ms. HCD collision energy setting of 27% was used for all MS2 scans.

Molecule	-LogP
ZYX (protein, UniProt Q15942 2-572, looked up) Zyxin: AAPRPSPAISVSVSAPAFYAPQKKFGPVVAPKPKVNPFRPGDSEPPPAPGAQRAQMGRVGEIPPPPPEDFPLPPPPLAGDGDDAEGALGGAFPPPPPPIEESFPPAPLEEEIFPSPPPPPEEEGGPEAPIPPPPQPREKVSSIDLEIDSLSSLLDDMTKNDPFKARVSSGYVPPPVATPFSSKSSTKPAAGGTAPLPPWKSPSSSQPLPQVPAPAQSQTQFHVQPQPQPKPQVQLHVQSQTQPVSLANTQPRGPPASSPAPAPKFSPVTPKFTPVASKFSPGAPGGSGSQPNQKLGHPEALSAGTGSPQPPSFTYAQQREKPRVQEKQHPVPPPAQNQNQVRSPGAPGPLTLKEVEELEQLTQQLMQDMEHPQRQNVAVNELCGRCHQPLARAQPAVRALGQLFHIACFTCHQCAQQLQGQQFYSLEGAPYCEGCYTDTLEKCNTCGEPITDRMLRATGKAYHPHCFTCVVCARPLEGTSFIVDQANRPHCVPDYHKQYAPRCSVCSEPIMPEPGRDETVRVVALDKNFHMKCYKCEDCGKPLSIEADDNGCFPLDGHVLCRKCHTARAQT	2.225
HNRNPC (protein, UniProt P07910 2-306, looked up) Heterogeneous nuclear …: ASNVTNKTDPRSMNSRVFIGNLNTLVVKKSDVEAIFSKYGKIVGCSVHKGFAFVQYVNERNARAAVAGEDGRMIAGQVLDINLAAEPKVNRGKAGVKRSAAEMYGSVTEHPSPSPLLSSSFDLDYDFQRDYYDRMYSYPARVPPPPPIARAVVPSKRQRVSGNTSRRGKSGFNSKSGQRGSSKSGKLKGDDLQAIKKELTQIKQKVDSLLENLEKIEKEQSKQAVEMKNDKSEEEQSSSSVKKDETNVKMESEGGADDSAEEGDLLDDDDNEDRGDDQLELIKDDEKEAEEGEDDRDSANGEDDS	2.933
GART (protein, UniProt P22102 2-1010, looked up) Trifunctional purine …: AARVLIIGSGGREHTLAWKLAQSHHVKQVLVAPGNAGTACSEKISNTAISISDHTALAQFCKEKKIEFVVVGPEAPLAAGIVGNLRSAGVQCFGPTAEAAQLESSKRFAKEFMDRHGIPTAQWKAFTKPEEACSFILSADFPALVVKASGLAAGKGVIVAKSKEEACKAVQEIMQEKAFGAAGETIVIEELLDGEEVSCLCFTDGKTVAPMPPAQDHKRLLEGDGGPNTGGMGAYCPAPQVSNDLLLKIKDTVLQRTVDGMQQEGTPYTGILYAGIMLTKNGPKVLEFNCRFGDPECQVILPLLKSDLYEVIQSTLDGLLCTSLPVWLENHTALTVVMASKGYPGDYTKGVEITGFPEAQALGLEVFHAGTALKNGKVVTHGGRVLAVTAIRENLISALEEAKKGLAAIKFEGAIYRKDVGFRAIAFLQQPRSLTYKESGVDIAAGNMLVKKIQPLAKATSRSGCKVDLGGFAGLFDLKAAGFKDPLLASGTDGVGTKLKIAQLCNKHDTIGQDLVAMCVNDILAQGAEPLFFLDYFSCGKLDLSVTEAVVAGIAKACGKAGCALLGGETAEMPDMYPPGEYDLAGFAVGAMERDQKLPHLERITEGDVVVGIASSGLHSNGFSLVRKIVAKSSLQYSSPAPDGCGDQTLGDLLLTPTRIYSHSLLPVLRSGHVKAFAHITGGGLLENIPRVLPEKLGVDLDAQTWRIPRVFSWLQQEGHLSEEEMARTFNCGVGAVLVVSKEQTEQILRDIQQHKEEAWVIGSVVARAEGSPRVKVKNLIESMQINGSVLKNGSLTNHFSFEKKKARVAVLISGTGSNLQALIDSTREPNSSAQIDIVISNKAAVAGLDKAERAGIPTRVINHKLYKNRVEFDSAIDLVLEEFSIDIVCLAGFMRILSGPFVQKWNGKMLNIHPSLLPSFKGSNAHEQALETGVTVTGCTVHFVAEDVDAGQIILQEAVPVKRGDTVATLSERVKLAEHKIFPAALQLVASGTVQLGENGKICWVKEE	1.317
PRPSAP2 (protein, UniProt O60256 1-369, looked up) Phosphoribosyl pyrophosphate …: MFCVTPPELETKMNITKGGLVLFSANSNSSCMELSKKIAERLGVEMGKVQVYQEPNRETRVQIQESVRGKDVFIIQTVSKDVNTTIMELLIMVYACKTSCAKSIIGVIPYFPYSKQCKMRKRGSIVSKLLASMMCKAGLTHLITMDLHQKEIQGFFNIPVDNLRASPFLLQYIQEEIPDYRNAVIVAKSPASAKRAQSFAERLRLGIAVIHGEAQDAESDLVDGRHSPPMVRSVAAIHPSLEIPMLIPKEKPPITVVGDVGGRIAIIVDDIIDDVDSFLAAAETLKERGAYKIFVMATHGLLSSDAPRRIEESAIDEVVVTNTIPHEVQKLQCPKIKTVDISMILSEAIRRIHNGESMSYLFRNIGLDD	1.629
WDR26 (protein, UniProt Q9H7D7 1-661, looked up) WD repeat-containing protein …: MQANGAGGGGGGGGGGGGGGGGGGGQGQTPELACLSAQNGESSPSSSSSAGDLAHANGLLPSAPSAASNNSNSLNVNNGVPGGAAAASSATVAAASATTAASSSLATPELGSSLKKKKRLSQSDEDVIRLIGQHLNGLGLNQTVDLLMQESGCRLEHPSATKFRNHVMEGDWDKAENDLNELKPLVHSPHAIVVRGALEISQTLLGIIVRMKFLLLQQKYLEYLEDGKVLEALQVLRCELTPLKYNTERIHVLSGYLMCSHAEDLRAKAEWEGKGTASRSKLLDKLQTYLPPSVMLPPRRLQTLLRQAVELQRDRCLYHNTKLDNNLDSVSLLIDHVCSRRQFPCYTQQILTEHCNEVWFCKFSNDGTKLATGSKDTTVIIWQVDPDTHLLKLLKTLEGHAYGVSYIAWSPDDNYLVACGPDDCSELWLWNVQTGELRTKMSQSHEDSLTSVAWNPDGKRFVTGGQRGQFYQCDLDGNLLDSWEGVRVQCLWCLSDGKTVLASDTHQRIRGYNFEDLTDRNIVQEDHPIMSFTISKNGRLALLNVATQGVHLWDLQDRVLVRKYQGVTQGFYTIHSCFGGHNEDFIASGSEDHKVYIWHKRSELPIAELTGHTRTVNCVSWNPQIPSMMASASDDGTVRIWGPAPFIDHQNIEEECSSMDS	1.772
LIPG (protein, UniProt Q9Y5X9 21-500, looked up) Endothelial lipase: SPVPFGPEGRLEDKLHKPKATQTEVKPSVRFNLRTSKDPEHEGCYLSVGHSQPLEDCSFNMTAKTFFIIHGWTMSGIFENWLHKLVSALHTREKDANVVVVDWLPLAHQLYTDAVNNTRVVGHSIARMLDWLQEKDDFSLGNVHLIGYSLGAHVAGYAGNFVKGTVGRITGLDPAGPMFEGADIHKRLSPDDADFVDVLHTYTRSFGLSIGIQMPVGHIDIYPNGGDFQPGCGLNDVLGSIAYGTITEVVKCEHERAVHLFVDSLVNQDKPSFAFQCTDSNRFKKGICLSCRKNRCNSIGYNAKKMRNKRNSKMYLKTRAGMPFRVYHYQMKIHVFSYKNMGEIEPTFYVTLYGTNADSQTLPLEIVERIEQNATNTFLVYTEEDLGDLLKIQLTWEGASQSWYNLWKEFRSYLSQPRNPGRELNIRRIRVKSGETQRKLTFCTEDPENTSISPGRELWFRKCRDGWRMKNETSPTVELP	1.303
NDNF (protein, UniProt Q8TB73 20-568, looked up) Protein NDNF: QKLPTRDEELFQMQIRDKAFFHDSSVIPDGAEISSYLFRDTPKRYFFVVEEDNTPLSVTVTPCDAPLEWKLSLQELPEDRSGEGSGDLEPLEQQKQQIINEEGTELFSYKGNDVEYFISSSSPSGLYQLDLLSTEKDTHFKVYATTTPESDQPYPELPYDPRVDVTSLGRTTVTLAWKPSPTASLLKQPIQYCVVINKEHNFKSLCAVEAKLSADDAFMMAPKPGLDFSPFDFAHFGFPSDNSGKERSFQAKPSPKLGRHVYSRPKVDIQKICIGNKNIFTVSDLKPDTQYYFDVFVVNINSNMSTAYVGTFARTKEEAKQKTVELKDGKITDVFVKRKGAKFLRFAPVSSHQKVTFFIHSCLDAVQIQVRRDGKLLLSQNVEGIQQFQLRGKPKAKYLVRLKGNKKGASMLKILATTRPTKQSFPSLPEDTRIKAFDKLRTCSSATVAWLGTQERNKFCIYKKEVDDNYNEDQKKREQNQCLGPDIRKKSEKVLCKYFHSQNLQKAVTTETIKGLQPGKSYLLDVYVIGHGGHSVKYQSKVVKTRKFC	1.312
RAP2B (protein, UniProt P61225 1-180, looked up) Ras-related protein Rap-2b: MREYKVVVLGSGGVGKSALTVQFVTGSFIEKYDPTIEDFYRKEIEVDSSPSVLEILDTAGTEQFASMRDLYIKNGQGFILVYSLVNQQSFQDIKPMRDQIIRVKRYERVPMILVGNKVDLEGEREVSYGEGKALAEEWSCPFMETSAKNKASVDELFAEIVRQMNYAAQPNGDEGCCSAC	2.656
